The results in this text go back to the nanobody polyreactivity screen of Harvey et al. (2022).

This data set can be described thus: yeast display, Sf9 membrane polyspecificity reagent, FACS + sequencing; frameworks hold sequencing errors. A digest of the protocol:
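Galactose induction of a Saccharomyces cerevisiae BJ5465 synthetic nanobody display library ran 36–48 hours. The cells were then stained for 1 hour at 4 °C with 10% biotinylated, detergent-solubilized Sf9 membrane reagent, pulled down on streptavidin microbeads and FACS-sorted into low and high (top ~1%) gates on expression and reagent-binding fluorescence. Labels for polyreactivity follow the gate of origin.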
Regarding “QVQLVESGGGLVQAGGSLRLSCAASGSTFIYYARGWYRQAPGKERELVASISRSGGSPYYADSVKGRFTISRDNAKNTVYLQMNSLKPEATAVYDCARAYRSSFNYWGQGTQVTVSS”, the “polyreactivity (PSR sort gate)” value is “high polyreactivity”.

Take “QVQLVESGGGLVQAGGSLRLSCAASGSTFGYNAMGWYRPAPGKERELVARITSSGGSTYYADSVKGRFTISRDNAKISVYLQMNSLKPEDTAVYYCAAGYPYRAVYRYYYWGQGTQVTVSS”: the “polyreactivity (PSR sort gate)” value is listed as “high polyreactivity”.

For “QVQLVESGGCLVQAGGSLRLSCAASGITFVSNVMGWYRQATGKEREFVAAITGRGDTTYADSVKGRFTISRDNAKNTVYLQMNSLKPEDTAVYYCAAEYSVPYRGWDGYEYWGQGTQVTVSS”, the “polyreactivity (PSR sort gate)” value is given as “low polyreactivity”.

Turning to “QVQLVESGGGLFQAGGSLRLSCAASGNTFPYYAMGWYRQAPVKERELVAAISRSGGTTYYADSVKGRFTISRDNAKNTVYLQMTSLKPEDTAVYYCAALYGSRSTYHMDDYWGQGSQVTVSS”, the “polyreactivity (PSR sort gate)” value is on record as “high polyreactivity”. The result for “QVQLVESGGGLVQAGGSLRLSCAASGSTFSYYTMGWSRQAPGKERELVAAISRGGSTNYADSVKGRFTISRDNAKNTVYLQMNSLKPEDTAVYYCAAEPGRTKRYKVRMDYWGQGTQVTVSS” reads “high polyreactivity”; that for “QVQLVESGGGLVQAGGSLRLSCAASGRIFFRYTMGWYRQAPGKESELVAAITKRGGTYYADSVKGRFTISRDNAKNTVYLQMNSLKPEDTAVYYCNAVRYGINSYTYRRGYWGQGTQVTVSS”, “high polyreactivity”; that for “QVQLLESGGGLLQAGGSLRLSCAASGSIFDFNAMGWYRQAPGKERELVAAITYIGDSTYYADSVKGRFTISRDNAKNTVYLQMNILKPEDTAVYYCANYRYPSRQYSFPLGYDYWGQGTQVTVSS”, “high polyreactivity”. The value for “QVQLVESGGGLVQAGGSLRLSCAASGFTFSGNAMGWYRQAPGKERELVAAITTTGVRTYYADSVKGRFTISRDNAKNTVYLQMNSLKPEDTAVYYCNKKRTQRVPVRYDYWGQGTQVTVSS” was “high polyreactivity”.

Consider “QVQLVESGGGLVQAGGSLRLSCASSGLIIDYYAMGWYRQAPGKERELVAAITSSSGITYYADSVKGRFTISRDNAKNTVYLQMNSLKPEDNAVYYCAAYTTYKLYEYAYWGQGTQVTVSS”, for which the “polyreactivity (PSR sort gate)” value is “low polyreactivity”. The result for “QVQLVESGGGLVQAGGSLRLSCAASGRIFVIYGRGWYRPAPGKERELVATISWSGSSTSYADSVKGRFTISRDNAKNTVYLQMNSLKPEDTAVYYCAAYTWYSRHRMNYWGQGTQVTVSS” reads “high polyreactivity”; that for “QVQLVESGGGLVQAGGSLRLSCAASGSTFGYYAMGCYRQAPGKERELVAAITSGGSTKYADSVKGRFTISRDNAKNTVYLQMNSLKPEDTAVYYCATSRYFGYGFWGQGTQVTVSS”, “low polyreactivity”; that for “QVQLVESGGGLVQAGGSLRLSCAASGSIFWLYAMGWYRQAPGKERELVAAITRRGGSTYYADSVKGRFTISRDNAKNTVYLQMNSLKPEDTAVYYCNRLYYSGSGASLDYWGQGTQVTVSS”, “high polyreactivity”.

As for “QVQLVESGVGLVQAGGSLRLSCAASGSTFWSYTMGWYRQAPGKERELVARIRTTGGSTYADSVKGRFTISRDNAKNTVYLQMNSLKPEDTAVYYCAKEGWLRYYPWYGGDYWGQGTQVTVSS”, the “polyreactivity (PSR sort gate)” value was “high polyreactivity”.

Consider “QVQLVESGGGLVQAGGSLRLSCAASGSIYPNYTMGWYRQAPGKERQLVAAITISGGTTYYSDSVKGRFTISRDNAKNTVYLQMISLKPEDTAVYYCADYHRDRNSGFDYWGQGTQVTVSS”, for which the “polyreactivity (PSR sort gate)” value was “high polyreactivity”. The value for “QVQLVESGGGLVQAGGSLRISCAASESIFPVYAMGWYRQAPGKERELVATITDGGGDTYYADSLKGRFTISRDNAKNTVYLQMNSLKPEDTAVYYCAARSMPEWSAYWYDYWGQGTQVTVSS” was “low polyreactivity”; that for “QFQLVESGGGLVQAGGSLRLSCAASGRTFVYYVMGWYRPAPGKERELVAAISRRGGSTYYADSVKGRFTISRDNAKNTVYLQMNSLKPEDTAVYYCAAQYYYAREDYWGQGTQVTVSS” was “high polyreactivity”. The result for “QVQLVESGGGLVQAGGSLRLSCAASGSIFGYNDMGCYRQAPGKEREMVAAITTSGDSTYYADSVKGRFTISRDNAKNTVYLQMNSLKPEDTAVYYCNADGEVVDWYHPYYVEYDYWGQGTQVTVSS” reads “low polyreactivity”; that for “QVQLVESGGDLVQAGGSLRLSCAASGSIFCYYVMGWYRQAPGKERELVAAITVSGAGTYNADSVKGRFTISRDNAKNTVYLQMNSLKPEDTAVYYCAARWLGHFYPFFLQGLSGFDYWGQGTQVTVSS”, “low polyreactivity”; that for “QVQLVESGGGLVQAGGSLRLSCAASGSTFYYNAMGWYRQAPGKERELVAAISRSGGRTYYADSVKGRFTISRDNAKNTVYLQMNSLKPEDTAVYYCAADAPGHEYYYWGQGTQVTVSS”, “high polyreactivity”. The result for “QVQLVESGGGLVQAGGSLRLSCAASGYTMGWYRQAPGKEREYGAAINQTGGSTYADSVKGRFTISRDNAKNTVYLQMNSLKPEDTAVYYCATDPAYWGDQPPEYDYWGQGTQVTVSS” reads “low polyreactivity”; that for “QVQLVESGGGLVQAGGSLRLSCAASGSILHAYALGWYRQAPGTERELVAAINWSGGSTYYADSVKGRFTISRDNAKNTVYLQMNSLKPEDTAVYYCAKVWRYGRYEYGYWGQGTQVTVSS”, “high polyreactivity”; that for “QVQLVESGGGLLQAGGSLRLSCAASGMGWYRQAPGKERELVAAISWNGGSTYYADSVKGRFTISRDNAKNTVYLQMNSLKPEDTAVYYCAADYSTVASSLYLDSWGQGTQVTVSS”, “low polyreactivity”. With “QVQLVESGGGLVQAGGSLRLSCAASGSTSLYNMGWYRQAPGKERELVAAIDSGSTNYADSVKGRFTISRDNAKNTVYLQMNSLKPEDTAVYYCAADGTNIGVYDRASYRDDYWGQGTQVTVSS”, the “polyreactivity (PSR sort gate)” value is on record as “low polyreactivity”. The result for “QDQLVESGGGLVQAGGSLRLSCAASGSIFSYTMGCYRQAPAKQRELVAAITSGGITYYADSVKGRFSISRDNAKNTVYLQMNSLKPEDTAVYYCADGWSSYRFGYWGQGTQVTVSS” reads “low polyreactivity”; that for “QVQLVSSGGGLVLAGGSLRLSCAASGRTIQDNAMGWYTQAPGKERELVAAISWRGGSTNYADSVKGRFTISRDNAKNTVYLQMNSLKPEDTAVYYCNRDPRKYGKLDYWGQGTQVTVSS”, “low polyreactivity”; that for “QVQLVESGGGLVQAGGSLRLSCAPSGSIFQSYAMGWYRQAPGKEREMVAAITRSGGRTYYADSVKGRFTISRDNAKNTVYLQMNSLKPEDTAVYYCAAFGWGYGYWGQGTQVTVSS”, “high polyreactivity”. The result for “QVQLGESGGGLVQAGGSLRLSCAASGSIFPDNTMGWYRPATGKEWELVAAIDGRGGTTYYADSVKGRFTISRDNAKNTVYLQMNSLKPEDTAVYYCARDIGHSARYDYWGQGTQVTVSS” reads “low polyreactivity”; that for “HVQLVESGGGLVQARGSLRLSCAASGSTFDNYTMGWYRQAPGKERELVAAITRNSGSTYYADSVKGRFTISRDNEKNSVYLHMNSLKPEDTAVYYCAADSYYRRYFGWYEYWGQGTQVTVSS”, “high polyreactivity”. The result for “QVQLLESGGGLVQAGGSLRLSCAASGRMFGSNAMGWYRQAPGKERELVAAITRGGSTNYADSVKGRFTISRDNAKNTVYFQMNSLKPEDTAVYYCAVRWYRKYNYWGQGTQVTVSS” reads “high polyreactivity”.

On to “QVHLVESGGGLVQAGGSLRLSCAASGSTFRIYSMGWYRQAPGKERELVAGITGNGGSTRYADSVKGRFTISRDNAKNTVYLQMNSLKPEDTAVYYCAARWTRQRYRTSYYSWGQGTQVTVSS”, for which the “polyreactivity (PSR sort gate)” value was “high polyreactivity”. “HVQLVESGGGLVQAGGSLRLSCAASGITFASYGMGWYRPAPGKDRELVAAISQRGGRTYYADSVKGRFTISRDNAKNTVYLQMNSLKPEDTAVYYCARTVGYRTLLESDSWGQGTQVTVAS”: the “polyreactivity (PSR sort gate)” value is recorded as “high polyreactivity”. The value for “QVQLVESGGGLVQAGGSLRLSCAASGSIFYYYTMGWYRQSPGKERELVAAIRWSSGTTYYADSVKGRFTISRDKAKNTVYLQINSLKPEDTAVYYCAAGGHARTWYAYYYWGQGTQVTVSS” was “low polyreactivity”. With “QVQLVESGGGLVQAGGSLRISCAASGLTFRLYVMGWYRQAPGKERELVATISRSGGSTHYADSVKGRFTISRDNAKNTVYLQMNSLKPEDTAVYDCAARLFYFGSDFDYWGQGTQVTVSS”, the “polyreactivity (PSR sort gate)” value is “high polyreactivity”. The result for “QVQLVESGGGLVQAGGSLRLSCAASGITFYQYVMGRYRQAPGKERELVAAISTSGDSTYYADYVKGRFTISRDNAKNTVYLQINSLKTEDTAVYYCATYWSGHYYYWGQGTQVTVSS” reads “high polyreactivity”; that for “QVQLVESGGGLVQAGGSLRLSCAASGSILRRYAMGWYRQAPGKERELVAAINYSGGNTYYADSVKGRFTISRDNAKNTVYLQMNSLKPEDTAVYFCAAYYGPYSARYYGGYEYWGQGTQVTVSS”, “high polyreactivity”. The result for “QVQLVESRGGLVQAGGSLRLSCAASGRIFGLYAMGWYRQAPGKERELVAAYADSVKGRFTISRDNAKNTVYLKMNCLKPEDTAVYYCAKGPLYAGYSIDLRDFNYWGQGTQVNVSS” reads “low polyreactivity”; that for “QVQLVESGGRLVQAGGTLRLSCAASGRIFGYNAMGWYRQAPGKERHLVAVITSGGSKNYADSVKGRFTISRDNAKHTVYLQMNSVKPEDTAVYYCPRRIWDRWSYPVRVRYYYWGQGTQVTGSS”, “high polyreactivity”. Regarding “QVQLVESGGGLVQEGGSLRLICAASGRIFAGYAMGWYSQAPGKERELVAAISQDGGSTYYADSVKGRFTISRDNAKNTVYLQMNSLKPEDTAVYYCAAEDPDSWLPWDLFDYWGQGTQVTVSS”, the “polyreactivity (PSR sort gate)” value is listed as “low polyreactivity”. The value for “QVQLVESGAGLVQAGGSLRVSCAASGSIFSYYTMGWYRQPPGKERELVAAITYRGGSTYYADSVKGRFTISRDNAKNTVYLQRNSLKPEDTAVYYCAARTRNGAGYYWGQGTQVTVSS” was “high polyreactivity”. The value for “QVQLVESGGGLVQAGGSLRLSCAASGFIFKRNAMGWYRQATGNERELVAAITKSGVNTYYADSVKGRFTISRDNAKNTVYLQMTSLKPEDTAVYYCAKTLTYGFRRYDYWGQGTQVTVSS” was “high polyreactivity”. Consider “QVQLVESGGGLVQAGGSLRLSCAASGRIISRYAMGWYRQAPGKERELVAAISRRGGSTYYADSVKGRFTISRDNAKNTVYLQMNSLKPEDTAVYYCAAVRRKTAGGLEDYWGQGTQVTVSS”, for which the “polyreactivity (PSR sort gate)” value is reported as “high polyreactivity”.
